Values of other authors in paper PMC11182772.

Molecular target: Scc1-SA2 (Homo sapiens) (UniProt O60216)
Sequence (O60216 whole entry, chain 1 of 2): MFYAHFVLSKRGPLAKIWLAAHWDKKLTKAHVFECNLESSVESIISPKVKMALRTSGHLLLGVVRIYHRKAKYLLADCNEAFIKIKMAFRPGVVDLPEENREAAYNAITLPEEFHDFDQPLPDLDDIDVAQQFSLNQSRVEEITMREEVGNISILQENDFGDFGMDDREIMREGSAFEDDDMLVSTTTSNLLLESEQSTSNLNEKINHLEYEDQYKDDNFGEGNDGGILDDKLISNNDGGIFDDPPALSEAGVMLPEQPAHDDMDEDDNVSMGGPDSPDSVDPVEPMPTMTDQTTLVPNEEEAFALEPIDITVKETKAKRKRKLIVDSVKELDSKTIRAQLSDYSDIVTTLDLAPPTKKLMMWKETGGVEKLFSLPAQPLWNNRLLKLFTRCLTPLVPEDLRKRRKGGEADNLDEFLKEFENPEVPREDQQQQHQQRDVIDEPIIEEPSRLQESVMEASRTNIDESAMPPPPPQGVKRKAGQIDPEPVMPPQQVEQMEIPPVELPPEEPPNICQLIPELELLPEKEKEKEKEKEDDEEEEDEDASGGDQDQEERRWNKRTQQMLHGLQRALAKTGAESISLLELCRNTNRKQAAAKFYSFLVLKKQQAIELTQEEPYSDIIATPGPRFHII
Sequence (Q8N3U4 whole entry, chain 2 of 2, further chain): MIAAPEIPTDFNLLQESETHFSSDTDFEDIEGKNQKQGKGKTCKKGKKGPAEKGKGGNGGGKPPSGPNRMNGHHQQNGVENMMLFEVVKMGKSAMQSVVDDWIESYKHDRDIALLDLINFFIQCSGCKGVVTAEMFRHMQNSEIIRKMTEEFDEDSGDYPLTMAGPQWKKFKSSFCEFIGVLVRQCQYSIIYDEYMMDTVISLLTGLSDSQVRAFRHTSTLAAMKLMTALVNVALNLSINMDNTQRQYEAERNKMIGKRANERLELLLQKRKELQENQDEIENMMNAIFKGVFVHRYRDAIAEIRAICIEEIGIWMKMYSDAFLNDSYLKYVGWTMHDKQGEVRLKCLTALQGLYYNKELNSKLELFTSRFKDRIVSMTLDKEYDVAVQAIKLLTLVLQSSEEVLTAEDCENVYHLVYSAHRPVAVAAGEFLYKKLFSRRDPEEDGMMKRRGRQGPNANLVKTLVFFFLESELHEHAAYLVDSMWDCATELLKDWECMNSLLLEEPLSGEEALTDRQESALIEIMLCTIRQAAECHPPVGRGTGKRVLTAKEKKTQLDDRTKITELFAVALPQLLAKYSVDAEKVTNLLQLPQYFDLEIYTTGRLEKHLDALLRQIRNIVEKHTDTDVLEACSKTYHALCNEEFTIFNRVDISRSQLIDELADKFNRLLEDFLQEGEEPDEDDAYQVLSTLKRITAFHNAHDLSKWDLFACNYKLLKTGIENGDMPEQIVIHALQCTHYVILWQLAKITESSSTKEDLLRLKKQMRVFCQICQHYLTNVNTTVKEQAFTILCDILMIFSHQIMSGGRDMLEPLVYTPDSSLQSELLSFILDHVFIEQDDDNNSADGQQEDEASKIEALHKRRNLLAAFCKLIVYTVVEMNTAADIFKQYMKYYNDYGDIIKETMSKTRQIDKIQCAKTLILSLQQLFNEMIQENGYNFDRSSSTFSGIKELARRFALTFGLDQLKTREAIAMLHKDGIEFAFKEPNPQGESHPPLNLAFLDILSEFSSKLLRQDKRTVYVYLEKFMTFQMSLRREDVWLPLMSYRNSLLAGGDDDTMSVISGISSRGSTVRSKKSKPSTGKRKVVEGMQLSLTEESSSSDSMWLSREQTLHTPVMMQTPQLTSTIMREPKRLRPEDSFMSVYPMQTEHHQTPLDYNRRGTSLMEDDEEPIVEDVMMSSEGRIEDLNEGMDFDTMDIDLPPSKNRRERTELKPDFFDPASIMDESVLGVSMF

Kd: 4 µM
Substance: CENP-U DVFDF motif peptide (from UniProt Q71F23)
